Laboratory results taken from US20230293738A1 (Y MABS THERAPEUTICS, published 2023).

T1: human 4Ig-B7H3 (B7H3-4Ig-His) (human, UniProt Q5ZPR3 29-466)
T1 construct: Recombinant His-tagged protein immobilised on a CM5 chip; also called 41g-B7H3; human 4Ig-B7-H3 (dominant isoform); not shown: His tag
T1 sequence: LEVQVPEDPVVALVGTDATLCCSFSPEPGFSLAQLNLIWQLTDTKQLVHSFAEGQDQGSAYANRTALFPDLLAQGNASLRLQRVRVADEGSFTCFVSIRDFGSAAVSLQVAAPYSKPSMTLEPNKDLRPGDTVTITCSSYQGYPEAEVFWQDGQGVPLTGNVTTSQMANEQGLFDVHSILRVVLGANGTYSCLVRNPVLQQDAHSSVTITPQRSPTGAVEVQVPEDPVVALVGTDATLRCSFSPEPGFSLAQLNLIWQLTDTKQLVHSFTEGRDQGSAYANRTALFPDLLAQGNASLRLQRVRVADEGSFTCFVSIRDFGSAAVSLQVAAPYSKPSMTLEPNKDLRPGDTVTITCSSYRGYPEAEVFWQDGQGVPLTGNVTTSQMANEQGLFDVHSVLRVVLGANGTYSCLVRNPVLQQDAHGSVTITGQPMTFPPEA

T2: human 2Ig-B7H3 (B7H3-2Ig-His) (human, UniProt Q5ZPR3 29-466)
T2 construct: Recombinant His-tagged protein immobilised on a CM5 chip; also called 21g-B7H3; B7H3-21g-His; not shown: His tag
T2 sequence: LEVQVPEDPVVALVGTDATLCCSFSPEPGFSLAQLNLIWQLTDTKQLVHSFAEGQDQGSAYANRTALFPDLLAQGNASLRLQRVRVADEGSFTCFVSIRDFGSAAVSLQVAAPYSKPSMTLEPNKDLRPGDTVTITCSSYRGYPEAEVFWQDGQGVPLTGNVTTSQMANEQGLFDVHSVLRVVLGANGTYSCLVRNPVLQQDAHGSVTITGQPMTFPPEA

B1: 175Lu-DTPA-8H9-antibody (CAR3.6) (antibody, mouse IgG1, kappa, V domains shown)
VH: QVQLQQSGAELVKPGASVKLSCKASGYTFTNYDINWVRQRPEQGLEWIGWIFPGDGSTQYNEKFKGKATLTTDTSSSTAYMQLSRLTSEDSAVYFCARQTTATWFAYWGQGTLVTVSA
VL: DIVMTQSPATLSVTPGDRVSLSCRASQSISDYLHWYQQKSHESPRLLIKYASQSISGIPSRFSGSGSGSDFTLSINSVEPEDVGVYYCQNGHSFPLTFGAGTKLELKR
modifications: p-SCN-Bn-CHX-A″-DTPA conjugated (CAR 3.6 per antibody), labelled with cold lutetium-175; sites not stated
B2: 127I-8H9-antibody P76501A (antibody, mouse IgG1, kappa, V domains shown)
VH: B1 VH
VL: B1 VL
modifications: labelled with iodine-127; sites not stated
B3: 8H9 antibody conjugated with p-SCN-Bn-CHX-A″-DTPA, CAR 6.1 (antibody, mouse IgG1, kappa, V domains shown)
VH: B1 VH
VL: B1 VL
modifications: p-SCN-Bn-CHX-A″-DTPA conjugated, CAR 6.1 per antibody; sites not stated
notes: Chelator conjugate, not metal-labelled
B4: 8H9 antibody conjugated with p-SCN-Bn-DOTA, CAR 11.7 (antibody, mouse IgG1, kappa, V domains shown)
VH: B1 VH
VL: B1 VL
modifications: p-SCN-Bn-DOTA conjugated, CAR 11.7 per antibody; sites not stated
notes: as for B3

Legend:
[1] = target: T1, human 4Ig-B7H3 (B7H3-4Ig-His); assay: SPR, Biacore T200, 4Ig-B7H3-His on CM5 chip, 1:1 fit
Experimental: (§1) Both human B7H3 41g and 21g proteins were dissolved in PBS (Phosphate-Buffered Saline) to make 0.1 mg/ml stock solution and stored in −80° C. B7-H3 proteins were immobilized onto the CM5 sensor chip using Amine Coupling Kit. Both proteins were diluted to 10 ug/ml with 10 mM Sodium acetate, pH 5.0. […] A blank immobilized surface was used as a control
(§2) The data were analyzed by the 1:1 fitting model and default parameter setting for the rate constants using the Biacore T200 Evaluation Software, and the apparent association on rate constant (kon, ka), dissociation off rate constant (koff, kd) and equilibrium dissociation constant (KD=kd/ka) were calculated.

[2] = target: T2, human 2Ig-B7H3 (B7H3-2Ig-His); assay: SPR; CHX-A''-DTPA conjugate, CAR 3.6, labeled with cold 175Lu
Experimental: as §1
(§3) Binding Assays: [0143] 1. Antibodies were diluted in HBS-EP buffer (10 mM HEPES, 150 mM NaCl, 3 mM EDTA, 0.05% Surfactant P20, pH 7.4) at varying concentrations (25-50-100-200-400 nM) prior to analysis. […] 2. Samples (60 ul) were injected over the sensor surface at a flow rate of 30 ul/min over 2 min. [0145] 3. Following completion of the association phase, dissociation was monitored in HBS-EP buffer for 10 min at the same flow rate. […] 4. At the end of each cycle, the surface was regenerated using 10 mM NaOH at a flow rate of 50 ul/min over 2×15 sec.

[3] = target: T2, human 2Ig-B7H3 (B7H3-2Ig-His); assay: SPR
Experimental: as §1, §2

[4] = target: T1, human 4Ig-B7H3 (B7H3-4Ig-His); assay: SPR
Experimental: as §1, §2

[5] = target: T2, human 2Ig-B7H3 (B7H3-2Ig-His); assay: SPR, Biacore T200, 2Ig-B7H3-His on CM5 chip, 1:1 fit
Experimental: as §1, §2

[6] = target: T2, human 2Ig-B7H3 (B7H3-2Ig-His); assay: SPR; 127I-labeled 8H9
Experimental: as §1, §3

[7] = target: T2, human 2Ig-B7H3 (B7H3-2Ig-His); assay: SPR, Biacore T200, 2Ig-B7H3-His on CM5 chip, 1:1 fit; 127I-labeled 8H9, lot P76501A
Experimental: as §1, §3

[8] = target: T2, human 2Ig-B7H3 (B7H3-2Ig-His); assay: SPR; remark: listed apart in the source
Experimental: as §1, §3

[9] = target: T1, human 4Ig-B7H3 (B7H3-4Ig-His); assay: SPR; remark: listed apart in the source
Experimental: as §1, §3

[10] = target: T2, human 2Ig-B7H3 (B7H3-2Ig-His); assay: SPR, Biacore T200, 2Ig-B7H3-His on CM5 chip, 1:1 fit; remark: listed apart in the source
Experimental: as §1, §3, §2

[11] = target: T1, human 4Ig-B7H3 (B7H3-4Ig-His); assay: SPR, Biacore T200, 4Ig-B7H3-His on CM5 chip, 1:1 fit; remark: listed apart in the source
Experimental: as §1, §3

[12] = target: T2, human 2Ig-B7H3 (B7H3-2Ig-His); assay: SPR, Biacore T200, 2Ig-B7H3-His on CM5 chip, 1:1 fit; CHX-A''-DTPA conjugate, CAR 6.1, unlabeled
[13] = target: T2, human 2Ig-B7H3 (B7H3-2Ig-His); assay: SPR, Biacore T200, 2Ig-B7H3-His on CM5 chip, 1:1 fit; DOTA conjugate, CAR 11.7, unlabeled

Binder | Kd [1] | t ½ [1] | Kd [2] | t ½ [3] | Kd [4] | t ½ [4] | Kd [5] | t ½ [5] | Kd [6] | Kd [7] | t ½ [8] | Kd [9] | t ½ [9] | T ½ [10] | Kd [11] | t ½ [11] | Kd [12] | Kd [13]
B1 | 18.5 nM | 0.722 h | 2.34 nM | 5 h | 18.5 nM | 0.722 h | 2.34 nM | 5 h | – | – | – | – | – | – | – | – | – | –
B2 | 0.666 nM | 4.39 h | – | 308 h | 0.666 nM | 4.39 h | – | 308 h | < 0.0787 nM | < 0.0787 nM | – | – | – | – | – | – | – | –
B3 | – | – | – | – | – | – | – | – | – | – | 0.394 h | 53.8 nM | 0.215 h | 0.394 h | 53.8 nM | 0.215 h | 24.3 nM | –
B4 | – | – | – | – | – | – | – | – | – | – | – | – | – | 3.72 h | 18.9 nM | 0.756 h | – | 2.99 nM
